T1: human GITR (human, UniProt Q9Y5U5 26-241)
T1 construct: also called glucocorticoid-induced TNFR family-related receptor; TNFRSF18
T1 sequence: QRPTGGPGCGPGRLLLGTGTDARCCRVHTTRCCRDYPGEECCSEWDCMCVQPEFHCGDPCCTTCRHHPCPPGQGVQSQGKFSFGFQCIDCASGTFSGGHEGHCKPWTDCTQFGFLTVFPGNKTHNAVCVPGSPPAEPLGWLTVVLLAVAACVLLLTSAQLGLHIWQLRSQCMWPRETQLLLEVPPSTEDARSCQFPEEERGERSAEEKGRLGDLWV

T2: human GITR-Fc (Enzo Life Sciences, ALX-522-061-C050) (human, UniProt Q9Y5U5 26-162)
T2 construct: Bought protein; not shown: Fc part of the bought fusion protein; not described
T2 sequence: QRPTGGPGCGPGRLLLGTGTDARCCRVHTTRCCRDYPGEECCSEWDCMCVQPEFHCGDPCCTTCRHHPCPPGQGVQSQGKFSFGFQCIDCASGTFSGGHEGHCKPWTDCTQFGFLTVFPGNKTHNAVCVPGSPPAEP


Tests used:
human GITR [1] = target: T1, human GITR; test: flow cytometry on activated human T cells, anti-FLAG detection
Procedure: Binding of purified monovalent anti-GITR Nanobodies to human GITR expressed on activated T cells was evaluated in flow cytometry. For this purpose, PBMCs from healthy donors were cultured with Dynabeads® Human T-Activator CD3/CD28 (Gibco—Life Technologies #11131D) for 7 days in a 1/2 bead/cell ratio.
Dilution series of Nanobodies starting from […] were applied to the cells. Nanobodies were allowed to associate for 30 minutes at 4° C. in FACS buffer (PBS supplemented with 10% FBS and 0.05% azide). Cells were washed by centrifugation and probed with anti-FLAG antibodies (Sigma F1804) for 30 minutes at 4° C., to detect bound Nanobody. […] Cells were washed and incubated with TOPRO3 to stain for dead cells which were subsequently removed during the gating procedure. The cells were then analysed via a BD FACSArray.

[2] = target: T2, human GITR-Fc (Enzo Life Sciences, …); test: ProteOn XPR36; human GITR-Fc amine-coupled on GLC chip, Nanobody injected at 6 concentrations
Procedure: Affinity was determined on the Proteon XPR36. Briefly, after human GITR-Fc (Enzo Life Sciences, ALX-522-061-C050) was immobilized on a GLC chip via amine coupling, a range of 6 concentrations of different monovalent Nanobodies (representing each family) were injected. The Ko values were determined by using the calculated association rate and dissociation rate constants (Table 1) (ProteOn Manager 3.1.0, Version 3.1.0.6 (2011)).

human GITR [3] = target: T1, human GITR; test: cell-based or functional assay
human GITR [4] = target: T1, human GITR; test: cell-based or functional assay; remark: listed apart in the source

Binder | EC50 (human GITR [1]) | Kd [2] | koff [2] | kon [2] | EC50, HEK293_NF-κB luc reporter (human GITR [3]) | Efficacy (%), human GITR ligand = 100%, HEK293_NF-κB luc reporter (human GITR [3]) | EC50, IFN-γ read-out, human T cell activation assay (human GITR [4]) | Maximal efficacy (%), human GITR ligand = 100%, IFN-γ read-out (human GITR [4])
A0231034A08 (VHH, Monovalent Nanobody expressed in E. coli with a triple Flag, HIS6 tag; also called A0231PMP034A08; PA0231PMP034A08.1; not shown: C-terminal triple FLAG and HIS6 tag) VHH: EVQLVESGGDLVQPGGSLRLSCAASGSVFSINDMGWFRQAPGKQRELVADIISRGVTNYADSVKGRFTISGDPAKNTVYLQMNSLKPEDTAVYYCNAHISTGWGRPHNNYWGQGTQVTVSS | 0.54 nM | 2.5 nM | 0.00067 s⁻¹ | 270000 M⁻¹ s⁻¹ |  |  |  | 
A023100118 (VHH) DVQLVESGGGVVQPGGSLRLSCAASETIFSIDSMAWYRQAPGKQRELVAAITGGGSPNYADSVKGRFTISSDVSKRTVYLQMNSLRPEDTALYYCNAEGQAGWGTALLDYWGQGTLVTVSSGGGGSGGGSEVQLVESGGGVVQPGGSLRLSCAASETIFSIDSMAWYRQAPGKQRELVAAITGGGSPNYADSVKGRFTISSDVSKRTVYLQMNSLRPEDTALYYCNAEGQAGWGTALLDYWGQGTLVTVSSGGGGSGGGSEVQLVESGGGVVQPGGSLRLSCAASETIFSIDSMAWYRQAPGKQRELVAAITGGGSPNYADSVKGRFTISSDVSKRTVYLQMNSLRPEDTALYYCNAEGQAGWGTALLDYWGQGTLVTVSSGGGGSGGGSEVQLVESGGGVVQPGGSLRLSCAASETIFSIDSMAWYRQAPGKQRELVAAITGGGSPNYADSVKGRFTISSDVSKRTVYLQMNSLRPEDTALYYCNAEGQAGWGTALLDYWGQGTLVTVSSGGGGSGGGSEVQLVESGGGVVQPGGSLRLSCAASETIFSIDSMAWYRQAPGKQRELVAAITGGGSPNYADSVKGRFTISSDVSKRTVYLQMNSLRPEDTALYYCNAEGQAGWGTALLDYWGQGTLVTVSSGGGGSGGGGSGGGGSGGGGSGGGGSGGGGSGGGGSEVQLVESGGGVVQPGGSLRLSCAASGFTFRSFGMSWVRQAPGKGPEWVSSISGSGSDTLYADSVKGRFTISRDNSKNTLYLQMNSLRPEDTALYYCTIGGSLSRSSQGTLVTVSSA |  |  |  |  | 0.0128 nM | 140% | 0.0426 nM | 95.6%
A023100129 (VHH) DVQLVESGGGVVQPGGSLRLSCAASGSIFSIDSMGWYRQAPGKQRELVAAITSSTNYADSVKGRFTISRDNSKNTVYLQMNSLRPEDTALYYCNLEGQAGWGTALINYWGQGTLVTVSSGGGGSGGGSEVQLVESGGGVVQPGGSLRLSCAASGSIFSIDSMGWYRQAPGKQRELVAAITSSTNYADSVKGRFTISRDNSKNTVYLQMNSLRPEDTALYYCNLEGQAGWGTALINYWGQGTLVTVSSGGGGSGGGSEVQLVESGGGVVQPGGSLRLSCAASGSIFSIDSMGWYRQAPGKQRELVAAITSSTNYADSVKGRFTISRDNSKNTVYLQMNSLRPEDTALYYCNLEGQAGWGTALINYWGQGTLVTVSSGGGGSGGGSEVQLVESGGGVVQPGGSLRLSCAASGSIFSIDSMGWYRQAPGKQRELVAAITSSTNYADSVKGRFTISRDNSKNTVYLQMNSLRPEDTALYYCNLEGQAGWGTALINYWGQGTLVTVSSGGGGSGGGSEVQLVESGGGVVQPGGSLRLSCAASGSIFSIDSMGWYRQAPGKQRELVAAITSSTNYADSVKGRFTISRDNSKNTVYLQMNSLRPEDTALYYCNLEGQAGWGTALINYWGQGTLVTVSSGGGGSGGGGSGGGGSGGGGSGGGGSGGGGSGGGGSEVQLVESGGGVVQPGGSLRLSCAASGFTFRSFGMSWVRQAPGKGPEWVSSISGSGSDTLYADSVKGRFTISRDNSKNTLYLQMNSLRPEDTALYYCTIGGSLSRSSQGTLVTVSSA |  |  |  |  | 0.0118 nM | 146% | 0.0515 nM | 108%
A023100127 (VHH) DVQLVESGGGVVQPGGSLRLSCAASGSIFSIDSMGWYRQAPGKQRELVAAITSSTNYADSVKGRFTISRDNSKNTVYLQMNSLRPEDTALYYCNLEGQAGWGTALINYWGQGTLVTVSSGGGGSGGGSEVQLVESGGGVVQPGGSLRLSCAASGSIFSIDSMGWYRQAPGKQRELVAAITSSTNYADSVKGRFTISRDNSKNTVYLQMNSLRPEDTALYYCNLEGQAGWGTALINYWGQGTLVTVSSGGGGSGGGSEVQLVESGGGVVQPGGSLRLSCAASGSIFSIDSMGWYRQAPGKQRELVAAITSSTNYADSVKGRFTISRDNSKNTVYLQMNSLRPEDTALYYCNLEGQAGWGTALINYWGQGTLVTVSSGGGGSGGGSEVQLVESGGGVVQPGGSLRLSCAASGSIFSIDSMGWYRQAPGKQRELVAAITSSTNYADSVKGRFTISRDNSKNTVYLQMNSLRPEDTALYYCNLEGQAGWGTALINYWGQGTLVTVSSGGGGSGGGGSGGGGSGGGGSGGGGSGGGGSGGGGSEVQLVESGGGVVQPGGSLRLSCAASGFTFRSFGMSWVRQAPGKGPEWVSSISGSGSDTLYADSVKGRFTISRDNSKNTLYLQMNSLRPEDTALYYCTIGGSLSRSSQGTLVTVSSA |  |  |  |  | 0.0157 nM | 150% | 0.0587 nM | 86.8%
A0231004B01 (VHH, Monovalent Nanobody expressed in E. coli with a triple Flag, HIS6 tag; also called A0231PMP004B01; PA0231PMP004B01.1; not shown: C-terminal triple FLAG and HIS6 tag) VHH: EVQLVESGGGLVQPGGSLRLSCAASGSIFSIDSMGWYRQAPGKQRELVAAITSSTNYADSVKGRFTISRDNAKNTVYLQMNSLKPEDTAVYYCNLEGQAGWGTALINYWGKGTLVTVSS | 0.61 nM | 2.6 nM | 0.0027 s⁻¹ | 1.1e+06 M⁻¹ s⁻¹ |  |  |  | 
A0231005A03 (VHH, Monovalent Nanobody expressed in E. coli with a triple Flag, HIS6 tag; also called A0231PMP005A03; PA0231PMP005A03.1; not shown: C-terminal triple FLAG and HIS6 tag) VHH: EVQLVESGGGLVQPGGSLRLSCAASETIFSIDSMAWYRQAPGKQRELVAAITGGGSPNYADSVKGRFTISSDVAKRTVYLQMNSLKPEDTAVYYCNAEGQAGWGTALMDYWGKGTLVTVSS | 0.79 nM | 3.4 nM | 0.0023 s⁻¹ | 680000 M⁻¹ s⁻¹ |  |  |  | 
A0231003D11 (VHH, Monovalent Nanobody expressed in E. coli with a triple Flag, HIS6 tag; also called A0231PMP003D11; PA0231PMP003D11.1; not shown: C-terminal triple FLAG and HIS6 tag) VHH: EVQLVESGGGLVQAGESLRLSCAASGSIFSIDAMGWYRQAPGKQRELVAEISDHTTYGDSVKGRFTISRGNAENTVALQMNSLKPEDTGVYYCNVHHQRGWGTSITVTWGQGTQVTVSS | 1.3 nM | 4.6 nM | 0.0029 s⁻¹ | 630000 M⁻¹ s⁻¹ |  |  |  | 
A0231052A08 (VHH, Monovalent Nanobody expressed in E. coli with a triple Flag, HIS6 tag; also called A0231PMP052A08; PA0231PMP052A08.1; not shown: C-terminal triple FLAG and HIS6 tag) VHH: EVQLVESGGGLVQAGGSLRLSCVASGSISSITAMGWHRQAPGAQREGVAVISRSGATMLVDSVKGRFTIVQDNAKNTVYLQMNSLKVEDTAVYGCSAITQGRTYWGQGTLVTVSS | 23 nM | 24 nM | 0.00097 s⁻¹ | 41000 M⁻¹ s⁻¹ |  |  |  | 
A0231033B02 (VHH, Monovalent Nanobody expressed in E. coli with a triple Flag, HIS6 tag; also called A0231PMP033B02; PA0231PMP033B02.1; not shown: C-terminal triple FLAG and HIS6 tag) VHH: EVQLVESGGGLVQPGGSLRLSCAASGTIFSISTMGWYRQAPGKQREVVAVTSGFSTNYSSAVKGRFTLSRDPAKNTVFLQMNSLQPEDTATYYCNAYLSLAWRDPDRDYWGQGTQVTVSS | 21 nM | 16 nM | 0.008 s⁻¹ | 490000 M⁻¹ s⁻¹ |  |  |  | 

Source: patent US20220411521A1 (Ablynx, published 2022)
